Measurements from patent US20220389077A1, “ALLOGENEIC CELL COMPOSITIONS AND METHODS OF USE” (Poseida Therapeutics, Inc., priority 2018, published 2022).

B1: CD2z CSR: chimeric stimulatory receptor: CD2 signal peptide, extracellular, transmembrane and cytoplasmic domains with CD3z intracellular domain (SEQ ID NO: 17062) (protein)
chain: MSFPCKFVASFLLIFNVSSKGAVSKEITNALETWGALGQDINLDIPSFQMSDDIDDIKWEKTSDKKKIAQFRKEKETFKEKDTYKLFKNGTLKIKHLKTDDQDIYKVSIYDTKGKNVLEKIFDLKIQERVSKPKISWTCINTTLTCEVMNGTDPELNLYQDGKHLKLSQRVITHKWTTSLSAKFKCTAGNKVSKESSVEPVSCPEKGLDIYLIIGICGGGSLLMVFVALLVFYITKRKKQRSRRNDEELETRAHRVATEERGRKPHQIPASTPQNPATSQHPPPPPGHRSQAPSHRPPPPGHRVQHQPQKRPPAPSGTQVHQQKGPPLPRPRVQPKPPHGAAENSLSPSSNRVKFSRSADAPAYKQGQNQLYNELNLGRREEYDVLDKRRGRDPEMGGKPRRKNPQEGLYNELQKDKMAEAYSEIGMKGERRRGKGHDGLYQGLSTATKDTYDALHMQALPPR

Tests used:
eK562-Luc.BCMA = experiment: Luciferase killing assay, 48 hour co-culture; format: cell-based; details: 10:1, 3:1, 1:1 E:T
Method: After secondary expansion, cells (Mock (WT T cells), WT CAR-T cells, DKO CAR-T cells, DKO CAR-T cells+CD2z CSR, and DKO CAR-T cells+CD28z CSR) were co-cultured with engineered K562-BCMA-Luciferase (eK562-Luc.BCMA) or negative control line K562-PSMA-Luciferase (eK562-Luc.PSMA) for 48 hours at 10:1, 3:1, or 1:1 E:T ratios. Luciferase signal was measured to determine cytotoxicity. Killing of eK562-Luc.PSMA is shown in dotted lines, while killing of eK562-Luc.BCMA is shown in solid lines. All CAR^+ T cells expressed an anti-BCMA specific CAR.
CSRs were delivered to CAR-T cells either transiently by mRNA or stably by piggyBac®. Pan T cells isolated from the blood of a normal donor were genetically modified using the piggyBac® DNA modification system and the standard Poseida process. Cells were co-electroporated in a single reaction with mRNA encoding the Super piggyBac™ transposase enzyme (SPB), a transposon encoding a BCMA CAR and selection gene, along with an additional mRNA encoding a CSR (either CD28z or CD2z; resulting in transient expression), or, with a transposon encoding a BCMA CAR, selection gene and a CSR (either CD28z or CD2z; resulting in stable expression). The cells were subsequently stimulated with agonist mAbs anti-CD2, anti-CD3 and anti-CD28, and were later selected for genetic modification over the course of a 19 day culture period. At the end of the initial culture period all T cells expressed the CAR, indicating successful selection for genetically-modified cells (data not shown). To assess CAR-T cell ability to kill, cells were co-cultured with engineered K562-BCMA-Luciferase (eK562-Luc.BCMA) or negative control line K562-Luciferase (eK562-Luc) for 48 hours at 10:1, 3:1, or 1:1 E:T ratios. Luciferase signal was measured to determine cytotoxicity. Killing of eK562-Luc is shown in bar graph on left, while killing of eK562-Luc.BCMA is shown in bar graph on right.

purified DKO CAR-T cells = experiment: Re-stimulation and secondary expansion of purified DKO CAR-T cells, with or without IL7 and IL15; format: cell-based, human; details: 14 day culture; re-stimulation
Method: After initial genetic modification and a first round of stimulation and expansion, cells from each group (Mock (WT CAR-T cells), DKO CAR-T cells, DKO CAR-T cells+CD2z CSR, and DKO CAR-T cells+CD28z CSR) were purified for TCR^−MHCI^− cells using magnetic beads. The purified cells were then re-stimulated using anti-CD2, anti-CD3, and anti-CD28 agonist mAbs. At the end of the 14 day culture period, TCR and MHCI expression (A) as well as magnitude of cell population expansion (B) was determined. After this secondary expansion, all purified DKO cells, including those expressing either CD2z or CD28z CSR, were still extremely pure for DKO cells (>98.8% DKO).
FIG. 11 is a graph showing that cytokine supplementation can further expand purified DKO CAR-T cells expressing CSR upon re-stimulation. After initial genetic modification and a first round of stimulation and expansion, cells expressing CSRs were purified for DKO cells using magnetic beads. The purified cells were then re-stimulated using anti-CD2, anti-CD3, and anti-CD28 agonist mAbs in the presence exogenous purified recombinant IL7 and IL15. At the end of the 14 day culture period, magnitude of cell population expansion was determined. After a secondary expansion, all purified DKO cells, including those expressing either CD2z or CD28z CSR, were still extremely pure for TCR^−MHCI^− cells (>98.8% double knockout (data not shown)). […]

Lag3, PD1, and Tim3 = experiment: Flow cytometry for exhaustion molecules; format: cell-based, human; details: compared to mock T cells
From the text: Mock (WT T cells), WT CAR-T cells, DKO CAR-T cells, DKO CAR-T cells+CD2z, and DKO CAR-T cells+CD28z were examined by flow cytometry for the expression of important exhaustion molecules Lag3, PD1, and Tim3. […] This phenotype may have a negative impact on the in vivo functionality of these CAR T cells since they appear to be more exhausted.

[1] = system: CD45RA, CD45RO, and CD62L; experiment: Memory phenotype by surface CD45RA, CD45RO and CD62L staining; format: cell-based, human; details: WT and DKO CAR-T cells
From the text: WT CAR-T cells, DKO CAR-T cells, DKO CAR-T cells+CD2z, and DKO CAR-T cells+CD28z were stained for expression of surface CD45RA, CD45RO, and CD62L to define Tscm, Tcm, Tem, and Teff cells; Tscm (CD45RA^+CD45RO^−CD62L^+), Tcm (CD45RA^−CD45RO^+CD62L^+), Tem (CD45RA^−CD45RO^+CD62L^−), Teff (CD45RA^+CD45RO^−CD62L^−). […] This phenotype may have a negative impact on the in vivo functionality of these CAR T cells since they appear to be more differentiated.
Allo CAR-T cells with no CSR and Allo CAR-Ts with CSR that was delivered either stably or transiently were stained for expression of surface CD45RA, CD45RO, and CD62L to define Tscm, Tcm, Tem, and Teff cells; Tscm (CD45RA^+CD45RO^−CD62L), Tcm (CD45RA^−CD45RO^+CD62L^+), Tem (CD45RA^−CD45RO^+CD62L^−), Teff ([…]CD62L^−). All samples were performed in duplicate, and data is shown in bar graph where error bars represent standard deviation.

[2] = system: CAR molecule on the surface of T cells; experiment: Staining for surface expression of CAR after secondary expansion; format: cell-based, human; details: DKO cells
From the text: After secondary expansion, cells (Mock (WT T cells), WT CAR-T cells, DKO CAR-T cells, DKO CAR-T cells+CD2z CSR, and DKO CAR-T cells+CD28z CSR) were stained for the surface-expression of CAR and compared to control WT CAR-T cells and Mock T cells.

[3] = CAR-T cells with transient (mRNA) or stable (piggyBac) CSR

Row | Molecule | in vitro cytotoxicity (luciferase signal) (eK562-Luc.BCMA; [3]) | in vitro cytotoxicity (luciferase signal) (eK562-Luc.BCMA; DKO CAR-T cells) | magnitude of cell population expansion compared to those not expressing either CSR (purified DKO CAR-T cells) | expression of exhaustion molecules Lag3, PD1, and Tim3 (Lag3, PD1, and Tim3) | memory phenotype (Tscm, Tcm, Tem, Teff) [1] | surface expression of CAR [2]
1 | CD28z CSR: chimeric stimulatory receptor: CD28 signal peptide, extracellular, transmembrane and cytoplasmic domains with CD3z intracellular domain (SEQ ID NO: 17060) | not significantly affected | not significantly affected | enhanced expansion | significant upregulation of exhaustion markers Lag3, PD1, and Tim3 | significantly more differentiated, favoring Tcm and Tem cells | does not have a significant impact
2 | B1 | not significantly affected | not significantly affected | enhanced expansion | little to no expression of exhaustion molecules | comprised predominantly of exceptionally high levels of favorable Tscm and Tcm cells | does not have a significant impact
